Assay: Standard protocol for determination of kcat and KM (continuous spectrophotometric assay, Acetyl CoA hydrolysis at 235 nm)
Format: biochemical
Conditions: purified protein, about 23° C., 0.2 mM acetyl CoA; for Kcat: 20 mM HEPES pH 6.8, 10% ethylene glycol; for Km: pH 6.8, glyphosate 0.125 to 10 mM
Method: KM was calculated from the initial reaction rates obtained from concentrations of glyphosate ranging from 0.125 to 10 mM, using the Lineweaver-Burke transformation of the Michaelis-Menten equation. kcat/KM was determined by dividing the value determined for kcat by the value determined for KM.
Using this methodology, kinetic parameters for a number of GAT polypeptides exemplified herein were determined. For example, the kcat, KM and kcat/KM for the GAT polypeptide corresponding to SEQ ID NO:445 have been determined to be 322 min^−1, 0.5 mM and 660 mM^−1 min^−1, respectively, using the assay conditions described above. The kcat, KM and kcat/KM for the GAT polypeptide corresponding to SEQ ID NO:457 have been determined to be 118 min^−1, 0.1 mM and 1184 mM^−1 min^−1, respectively, using the assay conditions described above. The kcat, KM and kcat/KM for the GAT polypeptide corresponding to SEQ ID NO:300 have been determined to be 296 min^−1, 0.65 mM and 456 mM^−1 min^−1, respectively, using the assay conditions described above. One of skill in the art can use these numbers to confirm that a GAT activity assay is generating kinetic parameters for a GAT suitable for comparison with the values given herein. For example, the conditions used to compare the activity of GATs should yield the same kinetic constants for SEQ ID NO: 300, 445 and 457 (within normal experimental variance) as those reported herein, when the conditions are used to compare a test GAT with the GAT polypeptides exemplified herein. Kinetic parameters for a number of GAT polypeptide variants were determined according to this methodology and are provided in Table 3.

Row | Molecule | Kcat [s⁻¹] | Km [µM]
1 | SEQ ID NO: 389: GAT polypeptide (protein, 6_19B6, GAT polypeptide) MIEVKPINAEDTYEIRHRILRPNQPLEACMYETDLLRGAFHLGGYYRGKLISIASFHQAEHSELEGQKQYQLRGMATLEGYREQKAGSTLIRHAEELLRKKGADLLWCNARTSASGYYKKLGFSEQGEVYDIPPVGPHILMYKKLT | 0.398 | 700
2 | SEQ ID NO: 400: GAT polypeptide (protein, 6_23H7, GAT polypeptide) MIEVKPINAEDTYEIRHRILRPNQPLEACMYETDLLGGTFHLGGYYRGKLISIASFHQAEHSELEGQKQYQLRGMATLEGYREQKAGSTLIRHAEEILRKKGADLLWCNARTSASGYYKKLGFSEQGGVYDIPPVGPHILMYKKLT | 0.77 | 1200
3 | SEQ ID NO: 398: GAT polypeptide (protein, 6_22H9, GAT polypeptide) MIEVKPINAEDTYEIRHRILRPNQPLEACMYETDLLGGTFHLGGYYRGKLISIASFHQAEHSELEGQKQYQLRGMATLDEYREQKAGSTLIRHAEELLRKKGADLLWCNARTSASGYYKKLGFSEQGEVYDIPPIGPHILMYKKLT | 0.29 | 1100
4 | SEQ ID NO: 397: GAT polypeptide (protein, 6_22D9, GAT polypeptide) MIEVKPINAEDTYEIRHRILRPNQPLEACMYETDLLEGTFHLGGYYRGKLISIASFHQAEHSELEGQKQYQLRGMATLEGYREQKAGSTLIRHAEELLRKKGADLLWCNARTSASGYYKKLGFSEQGEVYDIPPVGPHILMYKKLT | 0.732 | 1300
5 | SEQ ID NO: 396: GAT polypeptide (protein, 6_22C9, GAT polypeptide) MIEVKPINAEDTYEIRHRILRPNRPLEACMYETDLLGGTFHLGGYYRGKLISIASFHQAEHPGLEGKKQYQLRGMATLEEYREQKAGSTLIRHAEELLRKKGADLLWCNARTSASGYYKKLGFSEQGGVYDIPPVGPHILMYKKLT | 0.79 | 3200
6 | SEQ ID NO: 271: GAT polypeptide (protein, 10_17D1, GAT polypeptide) MIEVKPINAEDTYEIRHRILRPNQPLEACKYETDLLGGTFHLGGYYRGKLISIASFHQAEHPELEGQKQYQLRGMATLEGYREQKAGSTLIRHAEELLRKKGADLLWCNARTSASGYYKKLGFSEQGEVYDTPPVGPHILMYKKLT | 2.937 | 2200
7 | SEQ ID NO: 401: GAT polypeptide (protein, 6_2H1, GAT polypeptide) MIEVKPINAEDTYEIRHRVLRPNQPLEACMYETDLLGGTFHLGGYYRGKLISIASFHQAEHPELEGQKPYQLRGMATLEGYREQKAGSTLIRHAEELLRKKGADLLWCNARTSASGYYKKLGFSEQGEIYDIPPIGPHILMYKKLT | 0.443 | 900
8 | SEQ ID NO: 395: GAT polypeptide (protein, 6_21F4, GAT polypeptide) MIEVKPINAEDTYEIRHRVLRPNQPLEACMYETDLLGGAFHLGGYYRGKLISIASFHQAEHPELEGQKQYQLRGMATLEGYREQKAGSTLIRHAEELLRKKGADLLWCNARTSASGYYKKLGFSEQGEVYDVPPVGPHILMYKKLT | 0.405 | 700
9 | SEQ ID NO: 393: GAT polypeptide (protein, 6_20A9, GAT polypeptide) MIEVKPINAGDTYEIRHRILRPNQPLEACKYETDLLGGTFHLGGYYRGKLISIASFHQAEHSELEGQKQYQLRGMATLEGYREQKAGSTLIRHAEELLRKKGADLLWCNARTSASGYYKKLGFSEQGGVYDIPPVGPHILMYKKLT | 0.752 | 1300
10 | SEQ ID NO: 391: GAT polypeptide (protein, 6_19C8, GAT polypeptide) MIEVKPINAEDTYEIRHRILRPNQPLEACKYETDLLGGTLHLGGYYRGKLISIASFHQAEHPELEGQKQYQLRGMATLEGYREQKAGSTLIRQAEELLRKKGADLLWCNARTSASGYYKKLGFSEQGGVYDIPPVGPHILMYKELT | 1.25 | 2000
11 | SEQ ID NO: 404: GAT polypeptide (protein, 6_3H2, GAT polypeptide) MIEVKPINAEDTYEIRHRILRPNQPLEACMYETDLLGGTFHLGGYYRGKLISIASFHQAEHPELEGQKQYQLRGMATLEEYREQKAGSTLIRHAEELLRKKGADLLWCNARTSASGYYKKLGFSEQGEVYDIPPVGPHILMYKKLT | 0.953 | 1000
12 | SEQ ID NO: 407: GAT polypeptide (protein, 6_5D11, GAT polypeptide) MIEVKPINAEDTYEIRHRILRPNQPLEACMYETDLLGGTFHLGGYYRGKLISIASFHQAEHPELEGQKQYQLRGMATLEEYREQKAGSTLIRHAEELLRKKGADLLWCNARTSASGYYKKLGFSEQGEVYDIPPIGPHILMYKKLT | 0.253 | 1000
13 | SEQ ID NO: 405: GAT polypeptide (protein, 6_4A10, GAT polypeptide) MIEVKPINAEDTYEIRHRILRPNQPLEACMYETDLLGGTFHLGGYYRGKLISIASFHQAEHPELEGQKQYQLRGMATLEGYREQKAGSTLIRHAEELLRKKGADLLWCNARTSASGYYKKLGFSEQGEVYDIPPVGPHILMYKKLT | 0.917 | 1100
14 | SEQ ID NO: 399: GAT polypeptide (protein, 6_23H3, GAT polypeptide) MIEVKPINAEDTYEIRHRILRPNQPLEACMYGTDLLGGTFHLGGYYRGKLISIASFHQAEQPELEGQKQYQLRGMATLEGYREQKAGSTLIRHAEELLRKKGADLLWCNARTSASGYYKKLGFSEQGGVYDIPPVGPHILMYKKLT | 0.732 | 1100
15 | SEQ ID NO: 392: GAT polypeptide (protein, 6_20A7, GAT polypeptide) MIEVKPINAEDTYEIRHRILRPNQPLEACMYETDLLRGTFHLGGYYRGKLISIASFHQAEHSDLEGQKQYQLRGMATLEEYREQKAGSTLIRHAEELLRKKGADLLWCNARTSASGYYKKLGFSEQGEVYDIPPVGPHILMYKKLT | 0.673 | 1000
16 | SEQ ID NO: 270: GAT polypeptide (protein, 10_15F4, GAT polypeptide) MIEVKPINAEDTYEIRHRILRPNQPLEACMYETDLLRGTFHLGGYYRGKLVSIASFHQAEHPELEGQKQYQLRGMATLEEYREQKAGSTLIRHAEELLRKKGADLLWCNARTSASGYYKKLGFSEQGGVYDIPPVGPHILMYKKLT | 0.627 | 1000
17 | SEQ ID NO: 406: GAT polypeptide (protein, 6_4B1, GAT polypeptide) MIEVKPINAEDTYEIRHRVLRPNQPLEACMYETDLLGGTFHLGGYYRGKLIGIASFHQAEHPELEGQKQYQLRGMATLEGYREQKAGSTLIRHAEELLRKKGADLLWCNARTSASGYYEKLGFSGQGEVYDIPPIGPHILMYKKLT | 0.45 | 1000
18 | SEQ ID NO: 394: GAT polypeptide (protein, 6_20H5, GAT polypeptide) MIEVKPINAEDTYEIRHRILRPNQPLEACKYETDLLGGTFHLGGYYRGKLISIASFHQAEHSELEGQKQYQLRGMATLEGYREQKAGSTLIRHAEELLRKKGADLLWCNARTSASGYYKKLGFSEQGEVYDIPPIGPHILMYKKLT | 0.325 | 800
19 | SEQ ID NO: 402: GAT polypeptide (protein, 6_3D6, GAT polypeptide) MIEIKPINAEDTYEIRHRILRPNQPLEACMYETDLLGGTFHLGGYYRGKLISIASFHQAEHPELEGQKQYQLRGMATLEGYREQKAGSTLIRHAEELLRKKGADLLWCNARTSASGYYKKLGFSEQGEVYDIPPVGPHILMYKKLT | 0.695 | 1000
20 | SEQ ID NO: 390: GAT polypeptide (protein, 6_19C3, GAT polypeptide) MIEVKPINAEDTYEIRHRILRPNQPLEACKYETDLLGGTFHLGGYYRGKLISIASFHQAEHPELEGQKQYQLRGMATLEGYREQKAGSTLIRHAEELLRKKGADLLWCNARTSASGYYKKLGFSEQGEVYDIPPIGPHILMYKKLT | 0.385 | 1400
21 | SEQ ID NO: 403: GAT polypeptide (protein, 6_3G3, GAT polypeptide) MIEVKPINAEDTYEIRHRILRPNQPLEACMYETDLLGGTFHLGGYYRGKLISIASFHQAEHSELEGQKQYQLRGMATLEGYREQKAGSTLIRHAEELLRKKGADLLWCNARTSASGYYKKLGFSEQGEVYDIPPVGPHILMYKKLT | 0.865 | 1000
